How the values were obtained:
[1] = system: subcutaneous SKRC52 tumors
Experimental: SKRC52 cells were grown to 80% confluence and detached with Trypsin-EDTA 0.05% (Invitrogen). Cells were washed with PBS pH 7.4 once, counted and resuspended in PBS to a final concentration of 6.7×10^7 cells mL^−1. Athymic balb/c nu/nu mice, 8-10 weeks of age (Charles River) were anesthetized with isofluorane and aliquots of 1×10^7 cells (150 μL of suspension) injected subcutaneously into their lower back.
Food and water was given ad libitum during that period.
Mice were subsequently sacrificed by cervical dislocation.

[2] = system: CAIX expressing SKRC52 cells; assay: Ligand binding analysis by flow cytometry, SKRC52; format: cell-based, human; conditions: 30 nM dye conjugate, 1 h at 0° C., washed
Experimental: Cells were detached from culture plates using a 50 mM EDTA solution in phosphate buffered saline (PBS) pH 7.4, counted and suspended to a final concentration of 1.5×10^6 cells mL^−1 in a 1% v/v solution of FCS in PBS pH 7.4. Aliquots of 3×10^5 cells (200 μL) were spun down and resuspended in solutions of IRDye750 (Licor) labeled ligands (30 nM) in a 1% v/v solution of FCS in PBS pH 7.4 (200 μL) and incubated on ice for 1 h. Cells were washed once with 200 μL 1% v/v solution of FCS in PBS pH 7.4 (200 μL), spun down, resuspended in 1% v/v solution of FCS in PBS pH 7.4 (300 μL) and analyzed on a FACS Canto flow cytometer (BD Bioscience). FlowJo Version 8.7 (Treestar) was used for data analysis and visualization. Results were as follows: • (1) Flow cytometry analysis of binding of ligand-IRDye750 conjugates 1c-6c (FIG. 1) to CAIX expressing SKRC52 cells.
Flow cytometry was performed as described above with monovalent and bivalent near infrared dye conjugates B3 and B4 and negative control conjugates lacking the ligand on CAIX-positive SKRC52 cells and CAIX-negative HEK cells^5.

[3] = Estimation of the recommended therapy dose (tolerability); format: in vivo, mouse; conditions: for tolerated dose: nude mice, one mouse per regimen
Experimental: Estimation of the recommended therapy dose of a) 7a and b) 8a in nude mice was performed by studying different dosages using a schedule of five injections on five consecutive days compared to vehicle (5% DMSO in PBS pH 7.4). The dosage regimens were 0.4 nmol/day, 1.3 nmol/day, 4.0 nmol/day and 13.3 nmol/day. One mouse was used for each regimen.
Estimation of the recommended therapy dose and schedule of DM1 conjugate 9a was studied in SKRC52 tumor bearing nude mice. One mouse was used for testing each dosing scheme. Injections were given daily starting on day 0 in 5% DMSO in PBS pH 7.4 (150 μL). […] Since the animals in this study weighed on average 18% less than those used in the therapy study, a dose of 70 nmol per injection was used for the therapy experiment.

SKRC52 xenograft tumors = conditions: for tumor growth effect: 5 doses of 4 nmol on 5 consecutive days, 7a vs vehicle p<0.0001, vs 7b plus AAZ p<0.05
Experimental: SKRC52 xenograft tumors were implanted into balb/c nu/nu mice (Charles River) as described above. […] 5 doses of 4 nmol 7a,b, 8a,b or 7 doses of 70 nmol 9a,b each in PBS pH 7.4 (150 μL) containing 5% DMSO were given on 5 or 7 consecutive days and one group was treated with vehicle (5% DMSO in PBS pH 7.4). In the case of 7-9b an equimolar amount of AAZ was added to the injection solution to control for a possible antitumor activity of CAIX inhibitors. Sorafenib and sunitnib were administered at a standard dose of 30 mg/kg as described previously.^[5] Animals were weighed and tumor sizes measured daily and the tumor volume calculated according to the formula (long side)×(short side)^2×0.5. […] Prism 6 (GraphPad Software) was used for data analysis (regular two-way ANOVA with the Bonferroni test).

[4] = Stability in mouse plasma/serum at 37 C; format: in vitro ADME
Experimental: (§1) Targeted carbonate or carbamate 7a or 8a (30 μg) was dissolved in PBS pH 7.4 (1.5 mL) and incubated at 37° C. under gentle agitation. Aliquots (100 μL) were removed at different time points and diluted 1:1 with an internal standard of etodolac (TCI Chemicals) in MeOH (20 μg mL^−1). Small molecules were separated from salts using an Oasis WAX online sample preparation column (Waters) on an Alliance HT separation module (50 μL injections, 0.3 mL min^−1 0.1% aq. HCOOH for 3 min followed by 0.3 mL min^−1 MeCN for 7 min, Waters) and analyzed by mass spectrometry/mass spectrometry (MS/MS) on a Quattro API spectrometer (Waters) monitoring appropriate multiple reaction monitoring (MRM) transitions for 8a, 8b and etodolac as standard. Measurements were performed in triplicate, peaks integrated and the fraction of intact test compounds calculated as fraction of signal at time t divided by signal at time zero. Since signals due to etodolac were constant over time a further correction using the internal standard as reference was omitted. For stability measures in mouse serum, compounds were dissolved in freshly thawed mouse plasma (Invitrogen), aliquots taken at different time points and diluted with an equal volume of MeCN. After vigorous vortexting for 1 min, protein precipitate was spun down and the supernatant analyzed as above.
Targeted DM1 conjugate 9a (230 μg, 140 nmol) was dissolved in PBS pH 7.4 (1 mL) and incubated at 37° C. under gentle agitation. Aliquots (100 μL) were removed at different time points and diluted 1:1 with an internal standard solution of etodolac (TCI Chemicals) in MeCN (20 μg mL^−1). Water (600 μL) was added and aliquots of this mixture (50 μL) analyzed over a Syngergi RP Polar column (150×4.6 mm, 4 μm, Phenomenex) on an Alliance HT separation module (1 mL min^−1 5% MeCN in 0.1% aqueous TFA to 100% MeCN over 20 min, Waters). Analytes were detected using a Water 2996 photo array UV/VIS detector (Waters). Measurements were performed in triplicate, peaks integrated and the fraction of intact test compounds calculated as fraction of signal at time t divided by signal at time zero. Since signals due to etodolac were constant over time a further correction using the internal standard as reference was omitted. For stability measures in mouse serum, compounds were dissolved in freshly thawed mouse plasma (Invitrogen), aliquots taken at different time points and diluted with an equal volume of MeCN. After vigorous vortexting for 1 min, protein precipitate was spun down and the supernatant analyzed as above.

[5] = target: T1, recombinant carbonic anhydrase IX (Homo sapiens, UniProt Q16790); assay: biochemical; format: binding
T1 construct: Recombinant CAIX was expressed as described previously; made in house
Experimental: The FP was measured on a Spectra Max Paradigm multimode plate reader (Molecular Devices). Experiments were performed in triplicate and data analyzed as described by Wang and co-workers.^[4]

[6] = Hydrolytic stability in PBS pH 7.4 at 37 C (MS/MS or HPLC); format: physicochemical; design: half-life: dose or concentration left out as unconfirmed; conditions: PBS pH 7.4, 37° C.; for half-life: read-out: t1/2 in PBS (converted)
Experimental: as §1
Targeted DM1 conjugate 9a (230 μg, 140 nmol) was dissolved in PBS pH 7.4 (1 mL) and incubated at 37° C. under gentle agitation. […] Water (600 μL) was added and aliquots of this mixture (50 μL) analyzed over a Syngergi RP Polar column (150×4.6 mm, 4 μm, Phenomenex) on an Alliance HT separation module (1 mL min^−1 5% MeCN in 0.1% aqueous TFA to 100% MeCN over 20 min, Waters). Analytes were detected using a Water 2996 photo array UV/VIS detector (Waters). Measurements were performed in triplicate, peaks integrated and the fraction of intact test compounds calculated as fraction of signal at time t divided by signal at time zero. […] After vigorous vortexting for 1 min, protein precipitate was spun down and the supernatant analyzed as above.

[7] = system: CAIX expressing SKRC52 cells; assay: In vitro cytotoxicity assay (MTS); format: cell-based, human; conditions: Condition (b): 1 h exposure, wash, then 72 h; concentrations up to 300 nM
Experimental: SKRC52 or A549 cells were seeded in 96-well plates in their appropriate culture medium (100 μL) at a density of 5000 cells per well and allowed to grow for 24 h. The medium was replaced with medium containing different concentrations of test substance (100 μL, 300 nM-15 pM in 1:3 dilution steps) and plates were either:
(a) incubated for 72 hours in the presence of the toxic substance, or
(b) incubated for 1 h under standard culture conditions, followed by removal of the medium containing the toxic substance, gently washing the cells fresh medium once and adding new medium (100 μL) and incubating for 72 h under culture conditions.
MTS cell viability dye (20 μL, Promega) was added, the plates were incubated for 1 h under culture conditions and the absorbance at 490 nm measured on a Spectra Max Paradigm multimode plate reader (Molecular Devices). Experiments were performed in triplicate and average cell viability calculated as measured background corrected absorbance divided by the absorbance of untreated control wells. EC50 values were determined by fitting data to the four-parameter logistic equation.

[8] = system: subcutaneous SKRC52 tumors; assay: Analysis of tumor penetration by fluorescence microscopy; format: in vivo, mouse; conditions: 50 nmol intravenous; for tumor staining / penetration by fluorescence microscopy: Alexa546 probes
Experimental: After warming to −20° C., samples were cut into sections of 10 μm width and directly imaged on an Axioskop 2 fluorescence microscope (Zeiss).

[9] = five injections on five consecutive days
[10] = 7×70 nmol on 7 consecutive days

CC(C)(C)OC(=O)NCCOCCOCCNC(=O)CCCCc1ccc(C2=C(/C=C/C3=[N+](CCCCS(=O)(=O)O)c4ccc(S(=O)(=O)O)cc4C3(C)C)CCC/C2=C\C=C2\N(CCCCS(=O)(=O)O)c3ccc(S(=O)(=O)[O-])cc3C2(C)C)cc1 [Compound 6c, reference compound]
tumor targeting by near infrared imaging ([1]; 3 nmol intravenous, 1-12 h): does not reach the tumor | accumulation in extracted tumor and organs (imaging) ([1]; mouse, in vivo): very little tumor or organ accumulation | binding to SKRC52 cells (fluorescence shift) [2]: only shows little residual binding

COc1cc2[nH]cc(C(=O)N3C[C@@H](CCl)c4c3cc(OC(=O)OCCSSC[C@H](NC(=O)[C@H](CC(=O)O)NC(=O)[C@H](CCCNC(=N)N)NC(=O)[C@H](CC(=O)O)NC(=O)CCCCn3cc(CCCC(=O)Nc5nnc(S(N)(=O)=O)s5)nn3)C(=O)O)c3ccccc43)c2cc1OCCN(C)C [Compound 7a, AAZ Targeted CBI Carbonate]
tolerability at 13.3 nmol/day [3, 9]: poorly tolerated | tolerated dose [3, 9]: up to 4.0 nmol/day | tumor growth effect (SKRC52 xenograft tumors): statistically significant tumor growth retardation | half-life ([4]; mouse plasma, MS/MS, errors <1 min, read-out: Half lives in mouse plasma): 0.717 h | half-life ([4]; mouse serum, read-out: t1/2 in mouse serum in vitro): 0.717 h | Kd [5]: 0.0073 ± 0.0005 µM | binding affinity for recombinant CAIX in vitro (in words) [5]: retain binding affinity for recombinant CAIX in vitro | half-life [6]: 15 h | EC50 [7]: 0.0007 ± 0.0001 µM

COc1cc2[nH]cc(C(=O)N3C[C@@H](CCl)c4c3cc(OC(=O)N(C)CCSSC[C@H](NC(=O)[C@H](CC(=O)O)NC(=O)[C@H](CCCNC(=N)N)NC(=O)[C@H](CC(=O)O)NC(=O)CCCCn3cc(CCCC(=O)Nc5nnc(S(N)(=O)=O)s5)nn3)C(=O)O)c3ccccc43)c2cc1OCCN(C)C [Compound 8a, AAZ Targeted CBI Carbamate]
tolerated dose [3, 9]: ≤ 13.3 nmol/day | tumor growth effect (SKRC52 xenograft tumors): did not lead to any retardation in tumor growth | half-life ([4]; plasma, MS/MS, errors <1 min, read-out: Half lives in mouse plasma): 1.02 h | half-life ([4]; serum, read-out: t1/2 in mouse serum in vitro): 1.02 h | Kd [5]: 0.0403 ± 0.0026 µM | binding affinity for recombinant CAIX in vitro (in words) [5]: retain binding affinity for recombinant CAIX in vitro | half-life ([6]; buffer): > 24 h

COc1cc2cc(c1Cl)N(C)C(=O)C[C@H](OC(=O)[C@H](C)N(C)C(=O)CCSSC[C@H](NC(=O)[C@H](CC(=O)O)NC(=O)[C@H](CCCNC(=N)N)NC(=O)[C@H](CC(=O)O)NC(=O)CCCCn1cc(CCCC(=O)Nc3nnc(S(N)(=O)=O)s3)nn1)C(=O)O)[C@@]1(C)O[C@H]1[C@H](C)[C@@H]1C[C@@](O)(NC(=O)O1)[C@H](OC)/C=C/C=C(\C)C2 [Compound 9a, Targeted DM1 Conjugate]
tolerability of six doses of 60 nmol ([3]; daily injections, SKRC52 tumor bearing nude mice): tolerated with only minimal weight loss | anti-tumor effect (SKRC52 xenograft tumors; [10]): potent anti-tumor effect | time after start of treatment at which tumors started regrowing (SKRC52 xenograft tumors; [10]): 20 days | toxicity (body weight) (SKRC52 xenograft tumors; [10]): no detectable body weight loss | half-life ([4]; mouse serum, HPLC, read-out: t1/2 in mouse serum (converted)): 20 h | Kd [5]: 0.0265 ± 0.0025 µM | binding affinity for recombinant CAIX in vitro (in words) [5]: retain binding affinity for recombinant CAIX in vitro | decomposition in PBS (in words) ([6]; HPLC): No decomposition was observed

N1-(2-(2-(2-aminoethoxy)ethoxy)ethyl)-N4-(5-sulfamoyl-1,3,4-thiadiazol-2-yl)succinamide Alexa546 conjugate [Compound 1b]
fluorescence in organs by microscopy [8]: strong fluorescence due to 1b inside the tumor and the intestine | tumor staining / penetration by fluorescence microscopy [8]: staining of the tumor with 1b is initially highest in well-perfused areas

tert-butyl (2-(2-(2-aminoethoxy)ethoxy)ethyl)carbamate Alexa546 conjugate [Compound 6b]
tumor staining / penetration by fluorescence microscopy [8]: cannot be detected inside the tumor

Reference: patent US9884122B2, “Small molecule drug conjugates” (Philochem AG, priority 2014, dated 2018)
